From CN112794909A (GUANGZHOU EXCELMAB BIOMEDICAL TECH CO LTD, dated 2021)

T1: LAG-3抗原 (UniProt P18627 23-450, limits assumed)
T1 sequence (looked up): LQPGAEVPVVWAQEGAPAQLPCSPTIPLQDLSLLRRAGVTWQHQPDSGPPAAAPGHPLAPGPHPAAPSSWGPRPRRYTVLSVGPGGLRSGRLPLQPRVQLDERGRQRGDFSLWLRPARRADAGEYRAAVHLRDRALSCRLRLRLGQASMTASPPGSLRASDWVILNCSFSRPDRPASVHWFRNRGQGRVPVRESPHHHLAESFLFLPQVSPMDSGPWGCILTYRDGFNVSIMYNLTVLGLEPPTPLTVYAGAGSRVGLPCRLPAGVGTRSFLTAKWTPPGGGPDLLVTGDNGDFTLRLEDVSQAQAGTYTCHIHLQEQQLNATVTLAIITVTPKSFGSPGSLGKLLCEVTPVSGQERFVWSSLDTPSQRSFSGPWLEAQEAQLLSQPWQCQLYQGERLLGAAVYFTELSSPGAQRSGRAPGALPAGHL

T2: CTLA4抗原 (UniProt P16410 36-161, limits assumed)
T2 sequence (looked up): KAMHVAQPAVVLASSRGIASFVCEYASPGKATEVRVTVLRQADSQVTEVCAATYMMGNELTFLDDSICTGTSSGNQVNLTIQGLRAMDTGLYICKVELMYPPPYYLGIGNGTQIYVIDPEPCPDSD

T3: 重组人TIGIT蛋白抗原 (human, UniProt Q495A1 21-141, limits assumed)
T3 construct: Made as TIGIT-Fc in 293F, cut with TEV protease and purified; also called TIGIT抗原; 人TIGIT抗原
T3 sequence (looked up): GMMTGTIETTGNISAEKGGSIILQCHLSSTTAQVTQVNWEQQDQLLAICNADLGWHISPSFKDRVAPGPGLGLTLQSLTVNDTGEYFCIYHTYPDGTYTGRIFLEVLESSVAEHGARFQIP


Assays:
LAG-3抗原 = target: T1, LAG-3抗原; assay: ELISA, antigen coated
PD-1抗原 = PD-1抗原 (UniProt Q15116 25-167, limits assumed); assay: ELISA, antigen coated
Sequence of PD-1抗原 (Q15116 25-167 limits assumed): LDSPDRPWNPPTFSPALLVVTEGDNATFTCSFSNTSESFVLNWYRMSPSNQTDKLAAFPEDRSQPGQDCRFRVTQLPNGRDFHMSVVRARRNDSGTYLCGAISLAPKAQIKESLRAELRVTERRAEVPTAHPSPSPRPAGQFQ

PD-L1抗原 = PD-L1抗原 (UniProt Q9NZQ7 19-238, limits assumed); assay: ELISA, antigen coated
Sequence of PD-L1抗原 (Q9NZQ7 19-238 limits assumed): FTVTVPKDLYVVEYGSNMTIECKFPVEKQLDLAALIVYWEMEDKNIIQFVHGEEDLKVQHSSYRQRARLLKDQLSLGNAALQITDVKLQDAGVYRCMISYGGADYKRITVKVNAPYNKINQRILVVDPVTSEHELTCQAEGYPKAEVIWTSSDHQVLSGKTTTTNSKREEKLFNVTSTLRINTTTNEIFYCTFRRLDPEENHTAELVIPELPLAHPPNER

CTLA4抗原 = target: T2, CTLA4抗原; assay: ELISA, antigen coated
重组人TIGIT蛋白抗原 [1] = target: T3, 重组人TIGIT蛋白抗原; assay: ELISA, TIGIT antigen coated
重组人TIGIT蛋白抗原 [2] = target: T3, 重组人TIGIT蛋白抗原; assay: ELISA, human TIGIT antigen coated
重组人TIGIT蛋白抗原 [3] = target: T3, 重组人TIGIT蛋白抗原; assay: ELISA, TIGIT antigen coated, HRP anti-human IgG

binding result (LAG-3抗原) | binding result (PD-1抗原) | binding result (PD-L1抗原) | binding result (CTLA4抗原) | EC50 (重组人TIGIT蛋白抗原 [1]) [µg/mL] | EC50 (重组人TIGIT蛋白抗原 [2]) [µg/mL] | EC50 (重组人TIGIT蛋白抗原 [3]) [µg/mL] | Binder
no binding | no binding | no binding | no binding | 0.0741 | 0.155 |  | 人源化抗体hmT251 (antibody, V domains shown, also called 人源化抗TIGIT抗体hmT251; 人源化单链抗体hmT251) VH: DVRLKESGPGLVKPSQTLSLTCTVSGGSITSGFWNWIRKHPGNGLEYIGYISYSGSSYYNPSLKSRVTISRDTSKNQYSLKLSSVTAADTAVYYCAAGDFGNYGYAMDVWGQGTTVTVSS VL: DVQMTQSPSSLSASVGDRVTITCKASQRVTTAVAWYQQKPGKSPKLLIYSASYRYTGVPDRFTGSGSGTDFTLTISSLQPEDFATYYCQQYYSTPLTFGGGTKVEIK
 |  |  |  | 0.099 |  | 0.125 | 鼠源抗TIGIT单链抗体mT251 (mT251 scFv-Fc重组蛋白) (scFv, V domains shown) VH: DVKLKESGPSLVKPSQTLSLTCSVTGDSITSGFWNWIRKFPGNKLEYMGYISYSGSSYYNPSLKSRISITRDTSKNQYYLQLNSVTTEDTATYYCAAGDFGNYGYAMDNWGQGTSVTVSS VL: DVLMTQSHKFMSTSVGDRVSITCKASQRVTTAVAWYQQKPGQSPKLLIYSASYRYTGVPDRFTGSGSGTDFTFTITSVQPEDLAIYYCQQYYSTPLTFGAGTKLEIK
